{"source": "paper PMC4892509", "about": "“Binding of the Fkh1 Forkhead Associated Domain to a Phosphopeptide within the Mph1 DNA Helicase Regulates Mating-Type Switching in Budding Yeast” (PLoS Genetics, 2016)", "key": {"[1]": {"biological_target": "Fkh1 (UniProt P40466)", "test": "fluorescence anisotropy titration"}, "[2]": {"biological_target": "T1, Fkh1-6xHis (Saccharomyces cerevisiae, UniProt P40466)", "T1 construct": "C-terminally His-tagged full length Fkh1 protein was expressed from a pET28b expression vector in Rosetta E. coli; made in house; host or cells: Rosetta E. coli (pET28b)", "T1 sequence (P40466 1-484)": "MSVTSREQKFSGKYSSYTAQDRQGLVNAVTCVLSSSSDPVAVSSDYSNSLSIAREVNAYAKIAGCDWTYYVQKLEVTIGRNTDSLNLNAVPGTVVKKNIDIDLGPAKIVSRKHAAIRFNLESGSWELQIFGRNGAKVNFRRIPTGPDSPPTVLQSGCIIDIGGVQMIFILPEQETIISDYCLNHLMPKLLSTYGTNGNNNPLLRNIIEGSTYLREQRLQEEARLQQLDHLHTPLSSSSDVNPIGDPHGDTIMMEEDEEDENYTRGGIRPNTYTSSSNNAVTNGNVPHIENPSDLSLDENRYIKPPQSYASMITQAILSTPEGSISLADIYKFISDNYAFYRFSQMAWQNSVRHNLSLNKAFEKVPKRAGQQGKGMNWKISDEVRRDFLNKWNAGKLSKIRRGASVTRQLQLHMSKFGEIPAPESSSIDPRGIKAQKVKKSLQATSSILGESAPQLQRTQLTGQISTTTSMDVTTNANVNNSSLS", "test": "Fluorescence anisotropy binding of Mph1-derived peptides to recombinant Fkh1-6xHis"}, "[3]": {"biological_target": "T2, Recombinant Fkh1-6xHis (S. cerevisiae, UniProt P40466 1-484)", "T2 construct": "Fkh1, S. cerevisiae, full length; also called His-tagged Fkh1; purified Fkh1; source: Rosetta E. coli (pET28b), purified (nickel chromatography); not shown: 6xHis, C-terminal, kept", "T2 sequence (looked up)": "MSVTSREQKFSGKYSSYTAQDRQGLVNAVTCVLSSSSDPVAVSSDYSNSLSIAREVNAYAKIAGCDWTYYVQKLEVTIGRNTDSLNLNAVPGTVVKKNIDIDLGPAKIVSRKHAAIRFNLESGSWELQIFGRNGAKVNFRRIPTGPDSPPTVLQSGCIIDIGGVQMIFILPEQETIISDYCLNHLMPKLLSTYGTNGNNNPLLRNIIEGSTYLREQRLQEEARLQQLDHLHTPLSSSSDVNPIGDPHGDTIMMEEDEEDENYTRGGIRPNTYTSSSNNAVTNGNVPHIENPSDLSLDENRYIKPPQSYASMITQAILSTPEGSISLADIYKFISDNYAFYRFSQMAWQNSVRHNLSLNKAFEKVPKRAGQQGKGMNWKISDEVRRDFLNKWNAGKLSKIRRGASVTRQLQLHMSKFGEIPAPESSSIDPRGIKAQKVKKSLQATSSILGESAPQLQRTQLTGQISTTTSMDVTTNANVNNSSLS", "test": "fluorescence polarisation; fluorescence anisotropy: 3 nM 5-carboxyfluorescein labeled peptide, titration of purified Fkh1-6xHis; 50 mM HEPES pH 7.0, 200 mM KCl, 10% glycerol, 5 mM BME, 1 mM EDTA, 1 mM EGTA, 5 mM MgOAc, 0.02% NP-40; Fb = [protein] / ([protein] + Kd)", "settings": "both partners purified"}}, "note": "Non-standard residues stand in square brackets, D forms with d. No end group written: not given here. *: point of attachment. 5FAM = O=C1OC2(c3ccc(O)cc3Oc3cc(O)ccc32)c2ccc(C(=O)*)cc21; pT = C[C@@H](OP(=O)(O)O)[C@H](N)C(=O)O; Ahx = NCCCCCC(=O)O"}
{"molecule": "Mph1 772-789 (from UniProt P40562) pT776 peptide", "values": [{"measurement": "binding against the reference", "setting": "[1]; reference: unphosphorylated peptide, sites T776", "value": "stronger"}]}
{"molecule": "CC(C)C[C@H](NC(=O)[C@H](CO)NC(=O)[C@H](CO)NC(=O)[C@H](CO)NC(=O)[C@H](C)NC(=O)[C@H](CCC(=O)O)NC(=O)[C@H](CCC(=O)O)NC(=O)[C@@H](NC(=O)[C@H](CO)NC(=O)[C@H](CC(=O)O)NC(=O)[C@H](CC(N)=O)NC(=O)[C@H](CCC(=O)O)NC(=O)CCCCCNC(=O)c1ccc2c(c1)C(=O)OC21c2ccc(O)cc2Oc2cc(O)ccc21)[C@@H](C)OP(=O)(O)O)C(=O)N[C@@H](CCC(=O)O)C(=O)N[C@H](C(=O)N[C@@H](CCC(=O)O)C(=O)N[C@@H](CC(=O)O)C(=O)N[C@@H](CCC(=O)O)C(=O)N[C@@H](CCC(=O)O)C(=O)O)[C@@H](C)OP(=O)(O)O", "note": "[pT776 pT785]", "values": [{"measurement": "binding to purified Fkh1, result in words", "setting": "[2]; 3 nM labeled peptide, pH 7.0", "value": "bound purified Fkh1 efficiently"}]}
{"molecule": "Mph1 772-789 (from UniProt P40562) pT776 pT785 peptide", "values": [{"measurement": "binding against the reference", "setting": "[1]; reference: pT776 peptide, sites T785", "value": "stronger"}, {"measurement": "binding against the reference", "setting": "[1]; reference: pT785 peptide, sites T776", "value": "stronger"}]}
{"molecule": "Mph1 772-789 (from UniProt P40562) pT785 peptide", "values": [{"measurement": "binding against the reference", "setting": "[1]; reference: unphosphorylated peptide, sites T785", "value": "stronger"}]}
{"molecule": "CC(C)C[C@H](NC(=O)[C@H](CO)NC(=O)[C@H](CO)NC(=O)[C@H](CO)NC(=O)[C@H](C)NC(=O)[C@H](CCC(=O)O)NC(=O)[C@H](CCC(=O)O)NC(=O)[C@@H](NC(=O)[C@H](CO)NC(=O)[C@H](CC(=O)O)NC(=O)[C@H](CC(N)=O)NC(=O)[C@H](CCC(=O)O)NC(=O)CCCCCNC(=O)c1ccc2c(c1)C(=O)OC21c2ccc(O)cc2Oc2cc(O)ccc21)[C@@H](C)O)C(=O)N[C@@H](CCC(=O)O)C(=O)N[C@H](C(=O)N[C@@H](CCC(=O)O)C(=O)N[C@@H](CC(=O)O)C(=O)N[C@@H](CCC(=O)O)C(=O)N[C@@H](CCC(=O)O)C(=O)O)[C@@H](C)O", "note": "[Non-phosphorylated]", "values": [{"measurement": "fold reduced affinity for Fkh1 (non-phosphorylated vs peptide phosphorylated on both T776 and T785)", "setting": "[2]; relative to peptide phosphorylated on both T776 and T785", "value": "> 100 -fold"}]}
{"molecule": "{5FAM-Ahx}-ENDS[pT]EEASSSLE[pT]EDEE (Mph1, S. cerevisiae, 18-residue peptide representing Mph1(772–789); source: synthetic peptide)", "note": "[Mph1(772–789) peptide phosphorylated on both T776 and T785]", "values": [{"measurement": "Kd", "setting": "[3]", "value": 2.2, "unit": "µM"}]}
{"molecule": "{5FAM-Ahx}-ENDSTEEASSSLETEDEE (Mph1, S. cerevisiae, 18-residue peptide representing Mph1(772–789); source: synthetic peptide)", "note": "[Mph1(772–789) peptide, non-phosphorylated]", "values": [{"measurement": "Kd", "setting": "[3]", "value": 271, "unit": "µM"}]}
